Data: patent US20240270821A1, “GIP/GLP1/GCG TRI-RECEPTOR AGONISTS AND USES THEREOF” (priority 2023, published 2024)
Starred links: 1 amine or outer side, 2 acyl side, 3 side chain; linkers in the order of their positions; H or OH if unused. Non-standard residues stand in square brackets, D forms with d. Groups on a side chain read outwards from the residue. No end group written: not given here. *: point of attachment. C18 diacid = O=C(O)CCCCCCCCCCCCCCCCC(=O)*; γGlu = O=C(O)[C@H](CCC(=O)[*:2])N[*:1]; αMeL = CC(C)C[C@](C)(N)C(=O)O; Dab = NCC[C@H](N)C(=O)O; Dap = NC[C@H](N)C(=O)O; AEEA = NCCOCCOCC(=O)O; Aib = CC(C)(N)C(=O)O

T1: human GIP receptor (human) (UniProt P48546)
T1 sequence (looked up): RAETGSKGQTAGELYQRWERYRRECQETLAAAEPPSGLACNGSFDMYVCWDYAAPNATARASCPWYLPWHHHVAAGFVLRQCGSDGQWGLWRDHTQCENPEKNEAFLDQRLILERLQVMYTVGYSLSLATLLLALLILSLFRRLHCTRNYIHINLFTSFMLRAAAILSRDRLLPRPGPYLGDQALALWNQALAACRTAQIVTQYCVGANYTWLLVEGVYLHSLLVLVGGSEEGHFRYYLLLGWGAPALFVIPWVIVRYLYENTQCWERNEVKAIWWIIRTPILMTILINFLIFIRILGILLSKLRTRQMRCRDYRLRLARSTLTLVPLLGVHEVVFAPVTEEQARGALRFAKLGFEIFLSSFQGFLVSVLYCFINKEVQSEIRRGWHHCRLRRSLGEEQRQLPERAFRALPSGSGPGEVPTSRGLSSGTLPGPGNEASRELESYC


How the values were obtained:
Experiment in all cases: cell-based or functional assay
[1] = molecular target: T1, human GIP receptor (human)
[2] = molecular target: human GLP1-R (SNAP-GLP-1R expressed in HEK293 cells) (human) (UniProt P43220)
human GLP1-R (SNAP-GLP-1R expressed in HEK293 cells) (human), sequence (P43220 24-463): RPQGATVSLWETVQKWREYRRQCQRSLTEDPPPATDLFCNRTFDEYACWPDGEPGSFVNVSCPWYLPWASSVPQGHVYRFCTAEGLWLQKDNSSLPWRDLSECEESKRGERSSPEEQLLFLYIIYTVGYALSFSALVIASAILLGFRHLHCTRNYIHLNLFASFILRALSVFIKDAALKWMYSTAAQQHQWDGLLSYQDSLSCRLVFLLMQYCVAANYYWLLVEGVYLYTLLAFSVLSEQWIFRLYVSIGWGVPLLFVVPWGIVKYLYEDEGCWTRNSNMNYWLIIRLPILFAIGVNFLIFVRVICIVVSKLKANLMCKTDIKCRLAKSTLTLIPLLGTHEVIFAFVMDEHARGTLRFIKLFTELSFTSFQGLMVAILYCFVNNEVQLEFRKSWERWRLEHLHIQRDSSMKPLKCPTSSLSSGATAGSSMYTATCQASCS

[3] = molecular target: human glucagon receptor (human) (UniProt P47871)
human glucagon receptor (human), sequence (P47871 26-477): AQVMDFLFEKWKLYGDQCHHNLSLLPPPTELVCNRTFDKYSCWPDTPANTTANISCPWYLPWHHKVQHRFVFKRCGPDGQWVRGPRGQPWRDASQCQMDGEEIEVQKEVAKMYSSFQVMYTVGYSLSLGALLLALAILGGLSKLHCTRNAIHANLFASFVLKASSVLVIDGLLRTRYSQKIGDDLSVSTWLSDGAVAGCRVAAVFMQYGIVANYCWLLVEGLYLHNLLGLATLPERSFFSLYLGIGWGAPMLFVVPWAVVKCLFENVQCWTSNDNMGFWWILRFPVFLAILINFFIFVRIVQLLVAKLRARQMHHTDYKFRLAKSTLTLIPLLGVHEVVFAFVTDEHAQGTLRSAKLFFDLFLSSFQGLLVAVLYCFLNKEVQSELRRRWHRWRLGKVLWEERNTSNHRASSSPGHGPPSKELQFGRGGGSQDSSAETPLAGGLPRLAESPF

[4] = molecular target: hGLP-1R (Homo sapiens, UniProt P43220)
hGLP-1R, sequence (P43220 24-463): as the sequence (P43220 24-463) above

Binder | Relative cAMP EC50 [1] | cAMP Rel EC50, nM (in the presence of 1% HSA) [1] | GLP1R Internalization EC50 [2] | Internalization % TOP [2] | Relative cAMP EC50 [3] | cAMP Rel EC50, nM (in the presence of 1% HSA) [3] | Relative cAMP EC50 [4] | cAMP Rel EC50, nM (in the presence of 1% HSA) [4] | cAMP Rel EC50 (in the presence of 1% HSA) [1] | cAMP Rel EC50 (in the presence of 1% HSA) [3] | cAMP Rel EC50 (in the presence of 1% HSA) [4]
YXQGTFTSDFSXXLDKKAQXAFIEYLLEGGPSSGAPPPGGSX (synthetic construct; SITE 2: note = 2-Aminoisobutyric Acid; SITE 12: note = L-ornithine; SITE 13: note = alpha-methyl-leucine; SITE 17: note = Lysine is chemically modified through conjugation of the epsilon-amino group of the Lysine side chain with (2-[2-(2-Amino-ethoxy)-ethoxy]-acetyl)-(gamma-Glu)) [Example 66] | 0.219 nM | 29.9 nM | 42.1 nM | 46.3% | 3.71 nM | 415 nM | 3.86 nM | 329 nM | – | – | –
YXQGTFTSDFSXXLDKKAQXAFIEWLLEGGPSSGAPPPSGS (synthetic construct; SITE 2: note = 2-Aminoisobutyric Acid; SITE 12: note = L-ornithine; SITE 13: note = alpha-methyl-leucine; SITE 17: note = Lysine is chemically modified through conjugation of the epsilon-amino group of the Lysine side chain with (2-[2-(2-Amino-ethoxy)-ethoxy]-acetyl)-(gamma-Glu)) [Example 78] | 0.228 nM | 78.4 nM | 78.2 nM | 55% | 7.06 nM | 2640 nM | 1.93 nM | 560 nM | – | – | –
YXQGTFTSDFSKXLDKKAQXAFIEYLLAGGPSSGEPPPSGS (synthetic construct; SITE 2: note = 2-Aminoisobutyric Acid; SITE 13: note = alpha-methyl-leucine; SITE 17: note = Lysine is chemically modified through conjugation of the epsilon-amino group of the Lysine side chain with (2-[2-(2-Amino-ethoxy)-ethoxy]-acetyl)-(gamma-Glu)-CO-(CH2) 18-CO2H; SITE 20: n) [Example 8] | 0.231 nM | – | 63.2 nM | 74% | 6.65 nM | – | 2.11 nM | – | 39.4 nM | 1560 nM | 603 nM
YXQGTFTSDFSKXLDKKAQXAFIEYLLAGGPSSGAPPPSGE (synthetic construct; SITE 2: note = 2-Aminoisobutyric Acid; SITE 13: note = alpha-methyl-leucine; SITE 17: note = Lysine is chemically modified through conjugation of the epsilon-amino group of the Lysine side chain with (2-[2-(2-Amino-ethoxy)-ethoxy]-acetyl)-(gamma-Glu)-CO-(CH2) 18-CO2H; SITE 20: n) [Example 11] | 0.233 nM | – | 75.1 nM | 73.8% | 12.5 nM | – | 2.07 nM | – | 40.8 nM | 1700 nM | 337 nM
YXQGTFTSDFSXXLDKKAQXAFIEYLLAGGPSSGAPPPEGE (synthetic construct; SITE 2: note = 2-Aminoisobutyric Acid; SITE 12: note = L-ornithine; SITE 13: note = alpha-methyl-leucine; SITE 17: note = Lysine is chemically modified through conjugation of the epsilon-amino group of the Lysine side chain with (2-[2-(2-Amino-ethoxy)-ethoxy]-acetyl)-(gamma-Glu)) [Example 99] | 0.174 nM | 29.5 nM | 56.9 nM | 46.1% | 6.09 nM | 1130 nM | 3.54 nM | 588 nM | – | – | –
YXQGTFTSDFSKXLDKKAQXAFIEYLLAGGPSSGAPPPSGG (synthetic construct; SITE 2: note = 2-Aminoisobutyric Acid; SITE 13: note = alpha-methyl-leucine; SITE 17: note = Lysine is chemically modified through conjugation of the epsilon-amino group of the Lysine side chain with (2-[2-(2-Amino-ethoxy)-ethoxy]-acetyl)-(gamma-Glu)-CO-(CH2) 18-CO2H; SITE 20: n) [Example 12] | 0.17 nM | – | 48.5 nM | 75.3% | 12.2 nM | – | 1.46 nM | – | 30.2 nM | 1490 nM | 216 nM
YXQGTFTSDFSXXLDKKAQXAFIEYLLAGGPSSGAPPPSGT (synthetic construct; SITE 2: note = 2-Aminoisobutyric Acid; SITE 12: note = L-ornithine; SITE 13: note = alpha-methyl-leucine; SITE 17: note = Lysine is chemically modified through conjugation of the epsilon-amino group of the Lysine side chain with (2-[2-(2-Amino-ethoxy)-ethoxy]-acetyl)-(gamma-Glu)) [Example 87] | 0.128 nM | 12.8 nM | 61.8 nM | 45.4% | 8.51 nM | 1110 nM | 2.75 nM | 290 nM | – | – | –
YXQGTFTSDFSXXLDKKAQXAFIEYLLAGGPSSGAPPPEGS (synthetic construct; SITE 2: note = 2-Aminoisobutyric Acid; SITE 12: note = L-ornithine; SITE 13: note = alpha-methyl-leucine; SITE 17: note = Lysine is chemically modified through conjugation of the epsilon-amino group of the Lysine side chain with (2-[2-(2-Amino-ethoxy)-ethoxy]-acetyl)-(gamma-Glu)) [Example 93] | 0.162 nM | 27.9 nM | 30.4 nM | 50.8% | 7.16 nM | 1390 nM | 2.63 nM | 397 nM | – | – | –
Y[Aib]QGTFTSDFS[Dab][αMeL]LDKK([AEEA-γGlu-C18 diacid])AQ[Aib]AFIEYLLEGGPSSGAPPPGGS-NH2 [Example 67] | 0.34 nM | 73.3 nM | 50.9 nM | 31.1% | 3.7 nM | 781 nM | 4.07 nM | 683 nM | – | – | –
Y[Aib]QGTFTSDFS[Dap][αMeL]LDKK([AEEA-γGlu-C18 diacid])AQ[Aib]AFIEYLLEGGPSSGAPPPGGS-NH2 (ends and bridges not checked) [Example 68] | 0.46 nM | 85.1 nM | 95.2 nM | 33.8% | 8.55 nM | 1160 nM | 3.07 nM | 612 nM | – | – | –
YXQGTFTSDFSXXLDKKAQXAFIEYLLEXGPSSGEPPPGEG (synthetic construct; SITE 2: note = 2-Aminoisobutyric Acid; SITE 12: note = L-ornithine; SITE 13: note = alpha-methyl-leucine; SITE 17: note = Lysine is chemically modified through conjugation of the epsilon-amino group of the Lysine side chain with (2-[2-(2-Amino-ethoxy)-ethoxy]-acetyl)2-(gamma-Glu)) [Example 69] | 0.136 nM | 25.6 nM | 71.9 nM | 58.2% | 4.75 nM | 387 nM | 3.25 nM | 279 nM | – | – | –
YXQGTFTSDFSXXLDKKAQXAFIEYLLEXGPSSGAPPPSGS (synthetic construct; SITE 2: note = 2-Aminoisobutyric Acid; SITE 12: note = L-ornithine; SITE 13: note = alpha-methyl-leucine; SITE 17: note = Lysine is chemically modified through conjugation of the epsilon-amino group of the Lysine side chain with (2-[2-(2-Amino-ethoxy)-ethoxy]-acetyl)2-(gamma-Glu)) [Example 75] | 0.0578 nM | 16.8 nM | 61.8 nM | 51.9% | 4.51 nM | 1040 nM | 4.4 nM | 878 nM | – | – | –
YXQGTFTSDFSXXLDKKAQXAFIEYLLAGGPSSGEPPPSGE (synthetic construct; SITE 2: note = 2-Aminoisobutyric Acid; SITE 12: note = L-ornithine; SITE 13: note = alpha-methyl-leucine; SITE 17: note = Lysine is chemically modified through conjugation of the epsilon-amino group of the Lysine side chain with (2-[2-(2-Amino-ethoxy)-ethoxy]-acetyl)-(gamma-Glu)) [Example 97] | 0.176 nM | 23.9 nM | 51.9 nM | 50.7% | 6.73 nM | 1270 nM | 3.23 nM | 605 nM | – | – | –
YXQGTFTSDFSKXLDKKAQXAFIEYLLAGGPSSGEPPPSSG (synthetic construct; SITE 2: note = 2-Aminoisobutyric Acid; SITE 13: note = alpha-methyl-leucine; SITE 17: note = Lysine is chemically modified through conjugation of the epsilon-amino group of the Lysine side chain with (2-[2-(2-Amino-ethoxy)-ethoxy]-acetyl)-(gamma-Glu)-CO-(CH2) 18-CO2H; SITE 20: n) [Example 7] | 0.203 nM | – | 52.6 nM | 76.3% | 5.05 nM | – | 2.11 nM | – | 50.6 nM | 1210 nM | 494 nM
YXQGTFTSDFSXXLDKKAQXAFIEYLLEXGPSSGAPPPGEG (synthetic construct; SITE 2: note = 2-Aminoisobutyric Acid; SITE 12: note = L-ornithine; SITE 13: note = alpha-methyl-leucine; SITE 17: note = Lysine is chemically modified through conjugation of the epsilon-amino group of the Lysine side chain with (2-[2-(2-Amino-ethoxy)-ethoxy]-acetyl)2-(gamma-Glu)) [Example 70] | 0.102 nM | 27.4 nM | 60 nM | 61.3% | 6.04 nM | 717 nM | 2.71 nM | 620 nM | – | – | –
YXQGTFTSDFSKXLDKKAQXAFIEYLLAGGPSSGAPPPSEG (synthetic construct; SITE 2: note = 2-Aminoisobutyric Acid; SITE 13: note = alpha-methyl-leucine; SITE 17: note = Lysine is chemically modified through conjugation of the epsilon-amino group of the Lysine side chain with (2-[2-(2-Amino-ethoxy)-ethoxy]-acetyl)-(gamma-Glu)-CO-(CH2) 18-CO2H; SITE 20: n) [Example 10] | 0.226 nM | – | 79.2 nM | 71.9% | 7.62 nM | – | 1.85 nM | – | 43 nM | 1640 nM | 375 nM
YXQGTFTSDFSXXLDKKAQXAFIEYLLAGGPSSGEPPPEGE (synthetic construct; SITE 2: note = 2-Aminoisobutyric Acid; SITE 12: note = L-ornithine; SITE 13: note = alpha-methyl-leucine; SITE 17: note = Lysine is chemically modified through conjugation of the epsilon-amino group of the Lysine side chain with (2-[2-(2-Amino-ethoxy)-ethoxy]-acetyl)-(gamma-Glu)) [Example 98] | 0.179 nM | 33.8 nM | 56 nM | 49.3% | 6.91 nM | 867 nM | 4.35 nM | 660 nM | – | – | –
YXQGTFTSDFSRXLDKKAQXAFIEYLLEXGPSSGAPPPSGS (synthetic construct; SITE 2: note = 2-Aminoisobutyric Acid; SITE 13: note = alpha-methyl-leucine; SITE 17: note = Lysine is chemically modified through conjugation of the epsilon-amino group of the Lysine side chain with (2-[2-(2-Amino-ethoxy)-ethoxy]-acetyl)-(gamma-Glu)-CO-(CH2) 16-CO2H; SITE 20: n) [Example 79] | 0.0773 nM | 14.3 nM | 56.6 nM | 45.3% | 3.08 nM | 903 nM | 1.8 nM | 437 nM | – | – | –
YXQGTFTSDFSXXLDKKAQXAFIEYLLEXGPSSGAPPPSEG (synthetic construct; SITE 2: note = 2-Aminoisobutyric Acid; SITE 12: note = L-ornithine; SITE 13: note = alpha-methyl-leucine; SITE 17: note = Lysine is chemically modified through conjugation of the epsilon-amino group of the Lysine side chain with (2-[2-(2-Amino-ethoxy)-ethoxy]-acetyl)2-(gamma-Glu)) [Example 71] | 0.105 nM | 48.1 nM | 58.8 nM | 68.6% | 8.74 nM | 2800 nM | 3.12 nM | 1010 nM | – | – | –
YXQGTFTSDFSXXLDKKAQXAFIEYLLAGGPSSGEPPPSGS (synthetic construct; SITE 2: note = 2-Aminoisobutyric Acid; SITE 12: note = L-ornithine; SITE 13: note = alpha-methyl-leucine; SITE 17: note = Lysine is chemically modified through conjugation of the epsilon-amino group of the Lysine side chain with (2-[2-(2-Amino-ethoxy)-ethoxy]-acetyl)-(gamma-Glu)) [Example 94] | 0.154 nM | 21.4 nM | 37.1 nM | 47.2% | 8.16 nM | 1220 nM | 2.63 nM | 480 nM | – | – | –
YXQGTFTSDFSRXLDKKAQXAFIEYLLEXGPSSGAPPPSGS (synthetic construct; SITE 2: note = 2-Aminoisobutyric Acid; SITE 13: note = alpha-methyl-leucine; SITE 17: note = Lysine is chemically modified through conjugation of the epsilon-amino group of the Lysine side chain with (2-[2-(2-Amino-ethoxy)-ethoxy]-acetyl)2-(gamma-Glu)-CO-(CH2 )16-CO2H; SITE 20:) [Example 80] | 0.0593 nM | 10.1 nM | 35.8 nM | 48.2% | 7.44 nM | 1190 nM | 2.55 nM | 627 nM | – | – | –
